Reference: patent publication US20050089521A1

Experiments:
[1] = target: rat trkC (on E12 rat trigeminal neurons) (rat) (UniProt Q03351); test: cell-based or functional assay
[2] = target: mouse trkC (on E11 mouse trigeminal neurons) (mouse) (UniProt Q6VNS1); test: cell-based or functional assay
mouse trkC (on E11 mouse trigeminal neurons) (mouse), sequence (Q6VNS1 32-825): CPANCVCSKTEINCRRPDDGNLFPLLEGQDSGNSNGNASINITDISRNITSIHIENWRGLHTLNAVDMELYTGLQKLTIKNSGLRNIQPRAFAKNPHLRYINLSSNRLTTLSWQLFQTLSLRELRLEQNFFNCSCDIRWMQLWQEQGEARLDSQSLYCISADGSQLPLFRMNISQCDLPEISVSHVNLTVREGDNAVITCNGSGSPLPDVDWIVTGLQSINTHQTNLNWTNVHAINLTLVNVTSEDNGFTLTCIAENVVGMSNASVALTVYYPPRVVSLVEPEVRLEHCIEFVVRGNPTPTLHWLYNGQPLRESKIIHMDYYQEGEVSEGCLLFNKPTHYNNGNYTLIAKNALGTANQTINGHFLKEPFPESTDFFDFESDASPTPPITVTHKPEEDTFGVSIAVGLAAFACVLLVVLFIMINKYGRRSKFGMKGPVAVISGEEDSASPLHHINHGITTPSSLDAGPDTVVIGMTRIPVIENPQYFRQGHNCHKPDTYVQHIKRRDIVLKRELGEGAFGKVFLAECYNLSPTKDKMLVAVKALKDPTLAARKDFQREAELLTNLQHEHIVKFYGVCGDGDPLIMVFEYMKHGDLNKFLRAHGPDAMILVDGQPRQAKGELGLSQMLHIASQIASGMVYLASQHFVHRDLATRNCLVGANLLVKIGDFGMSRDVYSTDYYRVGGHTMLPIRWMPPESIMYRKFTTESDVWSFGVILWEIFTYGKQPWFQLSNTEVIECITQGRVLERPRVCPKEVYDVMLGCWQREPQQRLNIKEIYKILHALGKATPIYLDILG

rat trkC (on E12 rat trigeminal neurons) (rat), sequence (Q03351 32-864): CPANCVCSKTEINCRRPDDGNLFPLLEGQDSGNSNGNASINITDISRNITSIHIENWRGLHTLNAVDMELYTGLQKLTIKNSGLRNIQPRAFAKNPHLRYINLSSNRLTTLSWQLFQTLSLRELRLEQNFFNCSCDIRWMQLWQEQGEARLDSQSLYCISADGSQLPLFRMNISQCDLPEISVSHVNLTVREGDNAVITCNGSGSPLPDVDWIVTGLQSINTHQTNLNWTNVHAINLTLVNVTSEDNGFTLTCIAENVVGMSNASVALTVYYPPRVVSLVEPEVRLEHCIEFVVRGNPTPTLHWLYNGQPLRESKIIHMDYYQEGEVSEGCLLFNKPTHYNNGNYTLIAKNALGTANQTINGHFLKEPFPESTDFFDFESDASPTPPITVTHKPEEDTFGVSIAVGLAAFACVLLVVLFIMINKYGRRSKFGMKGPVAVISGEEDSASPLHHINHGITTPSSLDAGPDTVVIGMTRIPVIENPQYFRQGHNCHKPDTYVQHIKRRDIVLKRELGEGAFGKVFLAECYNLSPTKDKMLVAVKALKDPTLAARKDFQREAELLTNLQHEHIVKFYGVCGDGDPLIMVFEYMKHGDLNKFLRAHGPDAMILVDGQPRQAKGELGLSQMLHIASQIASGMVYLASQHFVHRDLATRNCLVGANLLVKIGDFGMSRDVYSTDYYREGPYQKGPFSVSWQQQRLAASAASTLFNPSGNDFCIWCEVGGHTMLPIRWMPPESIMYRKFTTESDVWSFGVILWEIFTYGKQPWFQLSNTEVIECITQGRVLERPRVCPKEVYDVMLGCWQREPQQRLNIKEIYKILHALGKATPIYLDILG

Substance: neurotrophin-3 (NT-3) (ligand)
- survival of trigeminal neurons after 24 hours in culture [1]: 0.08 ng/mL
- survival of trigeminal neurons after 24 hours in culture [2]: 0.08 ng/mL
